Measured values as given in article PMC8866397.

How the values were obtained:
HMGN2 = assay: two-color EMSA; conditions: value stated for HMGNs together, EMSA: 100 nM nucleosomes in 10 µl 2x TBE (45 mM Tris-borate pH 8.3, 1 mM EDTA), 0.15 mg/ml BSA, 5% Ficoll, 10 min at 4 °C, native 5% PAGE in 2x TBE …
HMGN1 = assay: two-color EMSA; conditions: value stated for HMGNs together, EMSA: 100 nM nucleosomes in 10 µl 2x TBE (45 mM Tris-borate pH 8.3, 1 mM EDTA), 0.15 mg/ml BSA, 5% Ficoll, 10 min at 4 °C, native 5% PAGE in 2x TBE …
[1] = low HMGN:nucleosome ratio, histone H3K27ac, scale: ratio of shifted rMNH3K27ac to rMN fluorescence
[2] = no preference over rMN, histone H3K27me3, scale: ratio of shifted rMNH3K27me3 to rMN fluorescence

Row | Substance | binding signal (HMGN2; [1]) | binding signal (HMGN1; [1]) | binding signal (HMGN2; [2]) | binding signal (HMGN1; [2])
1 | rMNH3K27ac | 1.7 | 1.7 |  | 
2 | rMNH3K27me3 |  |  | 1 | 1
